# Results from US20240052037A1 (published 2024).
# Numbering of substitutions follows the chain as printed.
# B1: anti-PD-L1/anti-CD47 heterodimeric antibody BH3016 (bispecific antibody)
# heavy 1: EVQLVQSGAEVKKPGSSVKVSCKASGFNIEDTYIHWVRQAPGQGLEWMGRIDPANANTKYDPKFQGRVTITADTSTNTAYMELSSLRSEDTAVYYCGRGLGAWFAYWGQGTLVTVSS
# light 1: DIQMTQSPSSLSASVGDRVTITCKASQDVHTAVAWIQQKPGKSPKLLIYSASNRYTGVPSRFSGSGSGTDFTFTISSLQPEDIATYYCQQHYITPLTFGQGTKLEIKRTVAAPSVFIFPPSDEQLKSGTASVVCLLNNFYPREAKVQWKVDNALQSGNSQESVTEQDSKDSTYSLSSTLTLSKADYEKHKVYACEVTHQGLSSPVTKSFNRGEC
# heavy 2: QVQLVQSGAEVKKPGSSVKVSCKASGFNIEDIYMHWVRQAPGQGLEWMGRIDPANDNTKYGPKLQGRVTITADESTSTAYMELSSLRSEDTAVYYCVRRIPTDIMDYWGQGTTVTVSSASTKGPSVFPLAPSSKSTSGGTAALGCLVKDYFPEPVTVSWNSGALTSGVHTFPAVLQSSGLYSLSSVVTVPSSSLGTQTYICNVNHKPSNTKVDKKVEPKSCDKTHTCPPCPAPELLGGPSVFLFPPKPKDTLMISRTPEVTCVVVDVSHEDPEVKFNWYVDGVEVHNAKTKPREEQYASTYRVVSVLTVLHQDWLNGKEYKCKVSNKALPAPIEKTISKAKGQPREPQVYTEPPSRDELTKNQVSLTCLVKGFYPSDIAVEWESNGQPENNYKTTPPVLDSDGSFFLLSVLTVDKSRWQQGNVFSCSVMHEALHNHYTQKSLSLSPGK
# light 2: DIQMTQSPSSLSASVGDRVTITCKASQNVRTSIAWYQQKPGKAPKTLIYLASNRHTGVPSRFSGSGSGTEFTLTISNLQPEDFATYYCLQHWNYPFTFGQGTKLEIKRTVAAPSVFIFPPSDEQLKSGTASVVCLLNNFYPREAKVQWKVDNALQSGNSQESVTEQDSKDSTYSLSSTLTLSKADYEKHKVYACEVTHQGLSSPVTKSFNRGEC
# B2: anti-PD-L1/anti-CD47 heterodimeric antibody BH3012h (bispecific antibody)
# heavy 1: B1 heavy 1
# light 1: B1 light 1
# heavy 2: B1 heavy 2 with E74T, S77N
# light 2: B1 light 2
# B3: anti-PD-L1/anti-CD47 heterodimeric antibody BH3015 (bispecific antibody)
# heavy 1: B1 heavy 1
# light 1: B1 light 1
# heavy 2: B1 heavy 2 with E74T
# light 2: B1 light 2 with T46R
# B4: anti-PD-L1/anti-CD47 heterodimeric antibody BH3014 (bispecific antibody)
# heavy 1: B1 heavy 1
# light 1: B1 light 1
# heavy 2: B1 heavy 2 with S77N, V97A
# light 2: B1 light 2 with T46R
# B5: CD47 monoclonal antibody (heavy and light chain variable region sequences of the humanized sequences z11 of the antibody CD47-18-5 and the constant region … (antibody, V domains shown)
# VH: QVQLVQSGAEVKKPGSSVKVSCKASGFNIEDIYMHWVRQAPGQGLEWMGRIDPANDNTKYGPKLQGRVTITADTSTNTAYMELSSLRSEDTAVYYCVRRIPTDIMDYWGQGTTVTVSS
# VL: DIQMTQSPSSLSASVGDRVTITCKASQNVRTSIAWYQQKPGKAPKTLIYLASNRHTGVPSRFSGSGSGTEFTLTISNLQPEDFATYYCLQHWNYPFTFGQGTKLEIK
# Biological target: recombinant human CD47-Fc (ACROBiosystems, catalog number CD7-H52A5) (human, UniProt Q08722 19-139)
# Assay: competition ELISA; blocking CD47/SIRPα
# Sequence of recombinant human CD47-Fc (ACROBiosystems, catalog number CD7-H52A5) (Q08722 19-139): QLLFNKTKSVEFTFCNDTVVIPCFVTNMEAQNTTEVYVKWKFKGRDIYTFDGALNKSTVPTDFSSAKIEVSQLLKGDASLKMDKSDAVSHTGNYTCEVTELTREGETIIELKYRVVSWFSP
row,EC50,Binder
1,6.12 nM,B1
2,4.73 nM,B2
3,12.8 nM,B3
4,802 nM,B4
5,2.26 nM,B5

# Biological target: T1, human PD-L1-Fc (ACROBiosystems, catalog number PD1-H5258) (human, UniProt Q9NZQ7 19-238)
# Assay: competition ELISA; blocking PD-L1/CD80
# T1 sequence (Q9NZQ7 19-238): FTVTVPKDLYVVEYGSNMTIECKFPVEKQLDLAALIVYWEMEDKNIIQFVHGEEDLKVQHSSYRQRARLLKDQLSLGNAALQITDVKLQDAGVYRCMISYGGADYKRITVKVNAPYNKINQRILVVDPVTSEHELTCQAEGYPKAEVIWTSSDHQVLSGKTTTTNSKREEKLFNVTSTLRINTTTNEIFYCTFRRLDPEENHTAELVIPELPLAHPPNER
row,EC50,Binder
1,1.29 nM,B1
2,1.78 nM,B2
3,1.97 nM,B3
4,1.5 nM,B4

# Biological target: human CD47 (ACROBiosystems, catalog number CD7-H5227) (human, UniProt Q08722 19-139)
# Assay: ELISA
# Sequence of human CD47 (ACROBiosystems, catalog number CD7-H5227) (Q08722 19-139): as the sequence (Q08722 19-139) above
row,EC50,Binder
1,0.491 nM,B1
2,0.134 nM,B2
3,2.49 nM,B3
4,68.4 nM,B4
5,0.094 nM,B5

# Biological target: recombinant human PD-L1 (Sino Biological Inc., catalog number 10084-H08H) (human, UniProt Q9NZQ7 19-239)
# Assay: ELISA
# Sequence of recombinant human PD-L1 (Sino Biological Inc., catalog number 10084-H08H) (Q9NZQ7 19-239): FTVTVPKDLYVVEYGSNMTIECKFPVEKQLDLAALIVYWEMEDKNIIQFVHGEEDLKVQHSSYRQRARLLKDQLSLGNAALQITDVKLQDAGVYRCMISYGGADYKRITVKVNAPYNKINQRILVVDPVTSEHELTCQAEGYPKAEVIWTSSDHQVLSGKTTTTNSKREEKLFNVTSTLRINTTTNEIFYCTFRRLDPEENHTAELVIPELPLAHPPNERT
row,EC50,Binder
1,0.251 nM,B1
2,0.261 nM,B2
3,0.262 nM,B3
4,0.234 nM,B4

# Biological target: T1, human PD-L1-Fc (ACROBiosystems, catalog …)
# Assay: competition ELISA; blocking PD-L1/PD-1
row,EC50,Binder
1,1.5 nM,B1
2,1.54 nM,B2
3,1.67 nM,B3
4,1.63 nM,B4
